The source of these data is patent US8440190.

The target of this experiment is immobilized CD52 (human) (UniProt P31358). In words: Fab fragments assayed for binding to immobilized CD52.
Turning to “humanized Campath-1 Fab with (VH) CDR1 replaced by that of NEW”, the fold reduction of binding against the humanized Campath-1 Fab was determined as 3 fold.

“humanized Campath-1 Fab with (VH) CDR3 replaced by that of NEW” showed a fold reduction of binding against the humanized Campath-1 Fab of 8 fold.

In the case of “humanized Campath-1 Fab with (VL) CDR3 replaced by that of REI”, the fold reduction of binding against the humanized Campath-1 Fab is 3 fold.
